Results on one molecule are retold here after US20220387557A1 (OXFORD UNIVERSITY INNOVATION, published 2022).

In experiment [1] the target is T1, Fc tagged human TNFR2 (Sino Biological) (human, UniProt P20333 23-257).
T1 construct: Bought reagent; also called hTNFR2; hTNFR2-Fc; not shown: Fc tag of the bought protein
T1 sequence (looked up): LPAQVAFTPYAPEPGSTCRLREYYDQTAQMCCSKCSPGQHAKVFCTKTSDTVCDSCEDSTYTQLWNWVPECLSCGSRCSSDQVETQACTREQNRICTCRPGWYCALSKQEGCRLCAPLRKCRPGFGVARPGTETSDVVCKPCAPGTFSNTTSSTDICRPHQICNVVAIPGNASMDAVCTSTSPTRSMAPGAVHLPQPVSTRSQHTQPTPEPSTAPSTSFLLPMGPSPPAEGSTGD
Put plainly: SPR, Biacore single cycle kinetics, stability study, after 1 year at -20° C. The protocol: (§1) Due to the limit in the number of available flow cells for analysis (three Fc per analysis, Fc2, Fc3 and Fc4, with Fc1 always being used as blank reference for non-specific subtraction), receptor binding was assessed in two separate overlapping runs using either: hTNFR1 (Fc2), hTNFR2 (Fc3) and mTNFR1 (Fc4), or; hTNFR1 (Fc2), […] and mTNFR2 (Fc4). Receptors were diluted in running buffer to a concentration of ˜4 μg/mL and at the start of each cycle loaded onto Fc2, Fc3 and Fc4 of a Protein A chip (GE Healthcare, Little Chalfont, UK) at a flow rate of 10 μL/min to give an RU of 40-100. The surface was then allowed to stabilise. Single cycle kinetic data was obtained at a flow rate of 45 μL/min. […] The association phase for the three injections of increasing concentrations of TNF was monitored for 240 seconds and a single dissociation phase was measured for 2700 seconds following the last injection of TNF. Regeneration of the Protein A surface was conducted using 10 mM glycine-HCl pH 1.5. The signal from the reference channel Fc1 (no receptor) was subtracted from that of Fc2, Fc3 and Fc4 to correct for differences in non-specific binding to a reference surface.
(§2) At day zero (prior to freezing) and following thawing on ice after 3 months and 1 year the following assays were performed: [0341] SDS-PAGE [0342] OD280 nm [0343] Single cycle Biacore for binding to hTNFR1, hTNFR2 and mTNFR1

The target in experiment [2] is T2, Fc tagged human TNFR1 (Sino Biological) (human, UniProt P19438 22-211, limits assumed).
T2 construct: Bought reagent; also called hTNFR1; hTNFR1-Fc; not shown: Fc tag of the bought protein
T2 sequence (looked up): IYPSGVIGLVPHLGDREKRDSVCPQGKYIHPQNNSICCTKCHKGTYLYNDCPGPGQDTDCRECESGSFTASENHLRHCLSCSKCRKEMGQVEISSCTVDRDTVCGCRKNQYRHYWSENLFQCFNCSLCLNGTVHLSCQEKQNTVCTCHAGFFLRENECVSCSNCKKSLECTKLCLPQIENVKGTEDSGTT
The experiment is described as above. As for the experimental part: as §1, §2

In experiment [3] the target is T3, Fc tagged mouse TNFR1 (Sino Biological) (mouse, UniProt P25118 22-212, limits assumed).
T3 construct: Bought reagent; also called mTNFR1; mTNFR1-Fc; not shown: Fc tag of the bought protein
T3 sequence (looked up): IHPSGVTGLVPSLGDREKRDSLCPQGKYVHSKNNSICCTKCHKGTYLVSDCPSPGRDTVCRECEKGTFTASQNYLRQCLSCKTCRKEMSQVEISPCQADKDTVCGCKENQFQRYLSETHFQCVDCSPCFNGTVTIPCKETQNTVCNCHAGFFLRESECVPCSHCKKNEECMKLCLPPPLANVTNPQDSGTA
The experiment is described as above. The protocol:
as §1, §2

Experiment [4] addresses T4, Fc tagged mouse TNFR2 (Sino Biological) (mouse, UniProt P25119 23-258).
T4 construct: Bought reagent; also called mTNFR2; mTNF2; not shown: Fc tag of the bought protein
T4 sequence (looked up): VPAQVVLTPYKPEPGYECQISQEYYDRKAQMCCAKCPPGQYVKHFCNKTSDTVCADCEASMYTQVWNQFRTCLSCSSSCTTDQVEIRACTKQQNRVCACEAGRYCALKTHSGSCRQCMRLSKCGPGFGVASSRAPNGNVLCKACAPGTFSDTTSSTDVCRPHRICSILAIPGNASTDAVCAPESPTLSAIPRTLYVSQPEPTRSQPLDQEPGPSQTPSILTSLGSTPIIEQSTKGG
Put plainly: SPR (Biacore T200) single cycle kinetics, Fc-tagged receptor captured on Protein A chip, TNF protein as analyte at 1.67-15 nM. The protocol: (§3) Single cycle kinetic analysis was performed using a Biacore T200 (serial no. 1909913) running Biacore T200 Evaluation Software V2.0.1 (Uppsala, Sweden). All experiments were run at 25° C. with HBS-P+ running buffer (pH 7.4) (GE Healthcare, Little Chalfont, UK).
as §1
Controls were used to ensure the integrity of the receptors during the Biacore run.

Experiment [5] addresses T1, Fc tagged human TNFR2 (Sino Biological). Put plainly: SPR, Biacore T200 single cycle kinetics, receptor-Fc captured on Protein A chip, TNF 1.67-15 nM. The protocol:
as §3, §1

Experiment [6] concerns the target T2, Fc tagged human TNFR1 (Sino Biological). The experiment is described as above. The protocol: as §3, §1
Experiment [7] addresses T3, Fc tagged mouse TNFR1 (Sino Biological). Described as above. The protocol:
as §3, §1

B1: TNF mutein B2 (ligand)
chain: VRSSSRTPSDKPVAHVVANPQAEGQLQWLNRRANALLANGVELRDNQLVVPSEGLYLIYSQVLFKGQGCPSTHVLLTHTISRITASYSGKVNLLSAIKSPCQRETPEGAEAKPWYEPIYLGGVFQLEKGDRLSAEINRPDYLDFAESGQVYFGIIAL
notes: Human TNF mutein, TASYSG at positions 84-89; not shown: C-terminal FLAG tag and His6 tag from vector pANT65
On to B1, for which the Kd in experiment [1] was found to be 0.21 nM; in experiment [2], 0.039 nM; in experiment [3], 0.0851 nM; in experiment [5], 0.315 nM; in experiment [6], 0.0164 nM; in experiment [7] it was 0.0256 nM. For the same molecule, the binding result in experiment [4] is “no binding (tested: 15 nM)”.
